B1: AtGORK^623 (residues 1 to 623) (domain or fragment, Arabidopsis thaliana, UniProt Q94A76 1-623, looked up)
chain: MGRLRRRQEIIDHEEEESNDDVSSRRGKLSLAETFRWLDSSEHRRIETDGHNDYKYIIHPKNRWYKAWEMFILVWAIYSSLFTPMEFGFFRGLPERLFVLDIVGQIAFLVDIVLQFFVAYRDTQTYRTVYKPTRIAFRYLKSHFLMDFIGCFPWDLIYKASGKHELVRYLLWIRLFRVRKVVEFFQRLEKDTRINYLFTRILKLLFVEVYCTHTAACIFYYLATTLPPENEGYTWIGSLKLGDYSYENFREIDLWKRYTTALYFAIVTMATVGYGDIHAVNLREMIFVMIYVSFDMVLGAYLIGNITALIVKGSNTERFRDKMNDLISFMNRKKLGRDLRSQITGHVRLQYDSHYTDTVMLQDIPASIRAKIAQLLYLPYIKKVPLFKGCSTEFINQIVIRLHEEYFLPGEVITEQGNVVDHLYFVCEGLLEALVTKTDGSEESVTLLGPHTSFGDISIICNISQPFTVRVCELCHLLRLDKQSFSNILEIYFHDGRTILNNIMEEKESNDRIKKLESDIVIHIGKQEAELALKVNSAAFQGDFYQLKSLIRSGADPNKTDYDGRSPLHLAACRGYEDITLFLIQEGVDVNLKDKFGHTPLFEAVKAGQEGVIGLLVKEGASF
B2: full-length Arabidopsis GORK (AtGORK^FL, residues 1 to 820) (natural protein, Arabidopsis thaliana, UniProt Q94A76 1-820, looked up)
chain: MGRLRRRQEIIDHEEEESNDDVSSRRGKLSLAETFRWLDSSEHRRIETDGHNDYKYIIHPKNRWYKAWEMFILVWAIYSSLFTPMEFGFFRGLPERLFVLDIVGQIAFLVDIVLQFFVAYRDTQTYRTVYKPTRIAFRYLKSHFLMDFIGCFPWDLIYKASGKHELVRYLLWIRLFRVRKVVEFFQRLEKDTRINYLFTRILKLLFVEVYCTHTAACIFYYLATTLPPENEGYTWIGSLKLGDYSYENFREIDLWKRYTTALYFAIVTMATVGYGDIHAVNLREMIFVMIYVSFDMVLGAYLIGNITALIVKGSNTERFRDKMNDLISFMNRKKLGRDLRSQITGHVRLQYDSHYTDTVMLQDIPASIRAKIAQLLYLPYIKKVPLFKGCSTEFINQIVIRLHEEYFLPGEVITEQGNVVDHLYFVCEGLLEALVTKTDGSEESVTLLGPHTSFGDISIICNISQPFTVRVCELCHLLRLDKQSFSNILEIYFHDGRTILNNIMEEKESNDRIKKLESDIVIHIGKQEAELALKVNSAAFQGDFYQLKSLIRSGADPNKTDYDGRSPLHLAACRGYEDITLFLIQEGVDVNLKDKFGHTPLFEAVKAGQEGVIGLLVKEGASFNLEDSGNFLCTTVAKGDSDFLKRLLSSGMNPNSEDYDHRTPLHVAASEGLFLMAKMLVEAGASVISKDRWGNSPLDEARLCGNKKLIKLLEDVKNAQSSIYPSSLRELQEERIERRKCTVFPFHPQEAKEERSRKHGVVVWIPSNLEKLIVTAAKELGLSDGASFVLLSEDQGRITDIDMISDGHKLYMISDTTDQT
B3: AtGORK^510 (residues 1 to 510) (domain or fragment, Arabidopsis thaliana, UniProt Q94A76 1-510, looked up)
chain: MGRLRRRQEIIDHEEEESNDDVSSRRGKLSLAETFRWLDSSEHRRIETDGHNDYKYIIHPKNRWYKAWEMFILVWAIYSSLFTPMEFGFFRGLPERLFVLDIVGQIAFLVDIVLQFFVAYRDTQTYRTVYKPTRIAFRYLKSHFLMDFIGCFPWDLIYKASGKHELVRYLLWIRLFRVRKVVEFFQRLEKDTRINYLFTRILKLLFVEVYCTHTAACIFYYLATTLPPENEGYTWIGSLKLGDYSYENFREIDLWKRYTTALYFAIVTMATVGYGDIHAVNLREMIFVMIYVSFDMVLGAYLIGNITALIVKGSNTERFRDKMNDLISFMNRKKLGRDLRSQITGHVRLQYDSHYTDTVMLQDIPASIRAKIAQLLYLPYIKKVPLFKGCSTEFINQIVIRLHEEYFLPGEVITEQGNVVDHLYFVCEGLLEALVTKTDGSEESVTLLGPHTSFGDISIICNISQPFTVRVCELCHLLRLDKQSFSNILEIYFHDGRTILNNIMEEKESN

Here are results for three proteins from article doi:10.1101/2024.12.17.628833 (bioRxiv, 2024).

This data set deals with the molecule itself. The experiment in a line: cryo-EM structure.
Turning to B1, the “stoichiometry N” value amounted to 4.

With B2, the “stoichiometry N” value was 4.

For B3, the “stoichiometry N” value came to 4.
